Test results from publication PMC11257539 (bioRxiv, 2024).
Non-standard residues stand in square brackets, D forms with d. No end group written: not given here. pS = N[C@@H](COP(=O)(O)O)C(=O)O

Columns and labels:
[1] = biological target: SNX27 PDZ domain (purified, BLI analyte and ITC cell) (human, UniProt Q96L92 43-136); experiment: ITC
[2] = biological target: SNX27 full-length (purified, as analyte in BLI and in liposome pelleting) (human, UniProt Q96L92 1-541); experiment: co-sedimentation
[3] = biological target: T1, ESCPE-1 complex (SNX2/SNX6 heterodimer) (human, UniProt O60749;Q9UNH7); experiment: co-sedimentation
T1 sequence 1: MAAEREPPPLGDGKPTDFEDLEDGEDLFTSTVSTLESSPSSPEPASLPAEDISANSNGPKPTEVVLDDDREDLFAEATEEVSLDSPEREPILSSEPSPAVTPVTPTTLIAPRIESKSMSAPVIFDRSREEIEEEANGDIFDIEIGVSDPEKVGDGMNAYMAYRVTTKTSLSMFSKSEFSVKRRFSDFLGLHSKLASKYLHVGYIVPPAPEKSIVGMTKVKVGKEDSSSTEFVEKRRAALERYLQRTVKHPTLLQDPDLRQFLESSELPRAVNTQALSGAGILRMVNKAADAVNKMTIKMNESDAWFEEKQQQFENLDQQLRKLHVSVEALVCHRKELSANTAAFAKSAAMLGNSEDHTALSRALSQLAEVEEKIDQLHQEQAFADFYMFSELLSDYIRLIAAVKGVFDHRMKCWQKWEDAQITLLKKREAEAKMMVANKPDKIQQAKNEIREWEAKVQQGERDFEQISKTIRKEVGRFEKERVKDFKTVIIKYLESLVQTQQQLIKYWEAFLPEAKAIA
T1 sequence 2: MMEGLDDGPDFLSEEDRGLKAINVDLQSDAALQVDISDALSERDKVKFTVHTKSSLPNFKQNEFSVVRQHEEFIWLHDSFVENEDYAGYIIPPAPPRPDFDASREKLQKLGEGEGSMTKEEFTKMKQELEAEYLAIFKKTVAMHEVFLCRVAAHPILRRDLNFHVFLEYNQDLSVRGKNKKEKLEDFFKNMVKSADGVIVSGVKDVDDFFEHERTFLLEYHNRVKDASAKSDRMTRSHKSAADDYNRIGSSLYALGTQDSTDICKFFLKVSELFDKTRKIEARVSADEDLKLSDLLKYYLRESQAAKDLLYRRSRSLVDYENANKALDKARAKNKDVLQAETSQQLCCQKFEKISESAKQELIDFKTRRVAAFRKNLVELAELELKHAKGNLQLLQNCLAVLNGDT

E[pS]LESCF [PDZbm cargo peptide 5-HT4(a)R-pS-5 (EpSLESCF)]
Kd [1]: 1100 nM | dH [1]: -15.2 kcal/mol | stoichiometry N [1]: 1.1

YTVLHRGHHQELEKLPIHNDPESLESCF [His-tagged PDZbm cargo: C-terminal cytosolic tail of 5-HT4(a)R (residues 360-388)]
binding result [2]: binds

SNVSYKYSKVNKEEETDENETEWLMEEIQ [CI-MPR cargo motif (residues 2347-2375)]
binding result [3]: binds
